Measured values published in patent publication US11795460B2, “Compositions and methods for TTR gene editing and treating ATTR amyloidosis” (Intellia Therapeutics, Inc., priority 2017, dated 2023).
Strand notation (5' to 3'): a small letter for the sugar, then the base; units joined by * are phosphorothioate-linked, units joined directly phosphodiester-linked; [ ] holds rarer units or linkages, { } end groups; capitals alone tell only the bases. m = 2'-O-methyl; r = 2'-OH (RNA)

Experiments:
TTR [1] = assay: EC50 and maximum editing in primary cyno hepatocytes treated with LNP formulated U-depleted Spy Cas9 mRNA and sgRNAs (Tables 20, 22); assay type: cell-based, cynomolgus monkey; parameters: key: % of sequence reads with indels or substitutions over total reads; conditions: Table 22, LNP with U-depleted Spy Cas9 mRNA and cyno specific sgRNAs, dose response
Procedure: (§1) Primary liver hepatocytes. Primary human liver hepatocytes (PHH) and primary cynomolgus liver hepatocytes (PCH) (Gibco) were cultured per the manufacturer's protocol (Invitrogen, protocol 11.28.2012). In brief, the cells were thawed and resuspended in hepatocyte thawing medium with supplements (Gibco, Cat. CM7000) followed by centrifugation at 100 g for 10 minutes for human and 80 g for 4 minutes for cyno. The supernatant was discarded and the pelleted cells resuspended in hepatocyte plating medium plus supplement pack (Invitrogen, Cat. A1217601 and CM3000). Cells were counted and plated on Bio-coat collagen I coated 96-well plates (ThermoFisher, Cat. 877272) at a density of 33,000 cells/well for human or 60,000 cells/well for cyno (or 65,000 cells/well when assaying effects on TTR protein, described further below). Plated cells were allowed to settle and adhere for 6 or 24 hours in a tissue culture incubator at 37° C. and 5% CO2 atmosphere. After incubation cells were checked for monolayer formation and media was replaced with hepatocyte culture medium with serum-free supplement pack (Invitrogen, Cat. A1217601 and CM4000).
(§2) For LNPs prepared using the cross-flow technique, the LNPs were formed by impinging jet mixing of the lipid in ethanol with two volumes of RNA solutions and one volume of water. The lipid in ethanol is mixed through a mixing cross with the two volumes of RNA solution. A fourth stream of water is mixed with the outlet stream of the cross through an inline tee. (See WO2016010840 FIG. 2.) The LNPs were held for 1 hour at room temperature, and further diluted with water (approximately 1:1 v/v). Diluted LNPs were concentrated using tangential flow filtration on a flat sheet cartridge (Sartorius, 100 kD MWCO) and then buffer exchanged by diafiltration into 50 mM Tris, 45 mM NaCl, 5% (w/v) sucrose, pH 7.5 (TSS). Alternatively, the final buffer exchange into TSS was completed with PD-10 desalting columns (GE). If required, formulations were concentrated by centrifugation with Amicon 100 kDa centrifugal filters (Millipore). The resulting mixture was then filtered using a 0.2 μm sterile filter. The final LNP was stored at 4° C. or −80° C. until further use.
(§3) To quantitatively determine the efficiency of editing at the target location in the genome, sequencing was utilized to identify the presence of insertions and deletions introduced by gene editing.
(§4) Primers were designed around the target site within the gene of interest (e.g. TTR), and the genomic area of interest was amplified.
(§5) Additional PCR was performed per the manufacturer's protocols (Illumina) to add chemistry for sequencing. The amplicons were sequenced on an Illumina MiSeq instrument. The reads were aligned to a reference genome (e.g., the human reference genome (hg38), the cynomologus reference genome (mf5), the rat reference genome (rn6), or the mouse reference genome (mm10)) after eliminating those having low quality scores. The resulting files containing the reads were mapped to the reference genome (BAM files), where reads that overlapped the target region of interest were selected and the number of wild type reads versus the number of reads which contain an insertion, substitution, or deletion was calculated.
(§6) The editing percentage (e.g., the “editing efficiency” or “percent editing” or “indel frequency”) is defined as the total number of sequence reads with insertions/deletions (“indels”) or substitutions over the total number of sequence reads, including wild type.
(§7) Lipid nanoparticle formulations of modified sgRNAs targeting human TTR and the cyno matched sgRNA sequences were tested on primary human hepatocytes and primary cyno hepatocytes in a dose response curve. Primary human and cyno hepatocytes were plated as described in Example 1. Both cell lines were incubated at 37° C., 5% CO2 for 24 hours prior to treatment with LNPs. […]

TTR [2] = assay: TTR editing in primary cyno hepatocytes electroporated with Spy Cas9 protein and sgRNAs (Tables 14, 15); assay type: cell-based, cynomolgus monkey; conditions: Table 15; primary cyno hepatocytes electroporated with Spy Cas9 protein (RNP) and cyno specific sgRNAs
Procedure: as §1
Ribonucleotide formation was performed prior to electroporation or transfection of Spy Cas9 protein loaded with guide RNAs (RNPs) onto cells. For dual guide (dgRNAs), individual crRNA and trRNA was pre-annealed by mixing equivalent amounts of reagent and incubating at 95° C. for 2 min and cooling to room temperature. Single guide (sgRNAs) were boiled at 95° C. for 2 min and cooling to room temperature. The boiled dgRNA or sgRNA was incubated with Spy Cas9 protein in Optimem for 10 minutes at room temperature to form a ribonucleoprotein (RNP) complex.
For RNP electroporation into primary human and cyno hepatocytes, the cells are thawed and resuspended in Lonza electroporation Primary Cell P3 buffer at a concentration of 2500 cells per μL for human hepatocytes and 3500 cells per μL for cyno hepatocytes. A volume of 20 μL of resuspended cells and 5 μL of RNP are mixed together per guide. 20 μL of the mixture is placed into a Lonza electroporation plate. The cells were electroporated using the Lonza nucleofector with the preset protocol EX-147. Post electroporation, the cells are transferred into a Biocoat plate containing pre-warmed maintenance media and placed in a tissue culture incubator at 37° C. and 5% CO2.
Transfected cells were harvested post-transfection at 24, 48, or 72 hours. The genomic DNA was extracted from each well of a 96-well plate using 50 μL/well BuccalAmp DNA Extraction solution (Epicentre, Cat. QE09050) per manufacturer's protocol. All DNA samples were subjected to PCR and subsequent NGS analyses, as described herein.
as §3, §4, §5
The editing percentage (e.g., the “editing efficiency” or “percent editing” or “indel frequency”) is defined as the total number of sequence reads with insertions/deletions (“indels”) or substitutions over the total number of sequence reads, including wild type. […]

TTR [3] = assay: EC50 and maximum editing in primary human hepatocytes treated with LNP formulated U-depleted Spy Cas9 mRNA and sgRNAs (Tables 19, 21); assay type: cell-based; parameters: key: % of sequence reads with indels or substitutions over total reads; conditions: Table 21, LNP with U-depleted Spy Cas9 mRNA and cyno specific sgRNAs, dose response
Procedure: as §1, §2, §3, §4, §5, §6, §7

TTR [4] = assay: TTR editing in primary cyno hepatocytes treated with LNP formulated Spy Cas9 mRNA (SEQ ID NO: 2) and sgRNAs (Tables 17, 18); assay type: cell-based, cynomolgus monkey; conditions: LNP formulated Spy Cas9 mRNA (SEQ ID NO: 2) and cyno matched sgRNAs, 72 hours post treatment
Procedure: as §1
In general, the lipid nanoparticle components were dissolved in 100% ethanol with the lipid component of various molar ratios. The RNA cargos were dissolved in 25 mM citrate, 100 mM NaCl, pH 5.0, resulting in a concentration of RNA cargo of approximately 0.45 mg/mL. The LNPs were formulated with a lipid amine to RNA phosphate (N:P) molar ratio of about 4.5 or about 6, with the ratio of mRNA to gRNA at 1:1 by weight.
The LNPs were formed by microfluidic mixing of the lipid and RNA solutions using a Precision Nanosystems NanoAssemblr™ Benchtop Instrument, according to the manufacturer's protocol. A 2:1 ratio of aqueous to organic solvent was maintained during mixing using differential flow rates. After mixing, the LNPs were collected, diluted in water (approximately 1:1 v/v), held for 1 hour at room temperature, and further diluted with water (approximately 1:1 v/v) before final buffer exchange. The final buffer exchange into 50 mM Tris, 45 mM NaCl, 5% (w/v) sucrose, pH 7.5 (TSS) was completed with PD-10 desalting columns (GE). If required, formulations were concentrated by centrifugation with Amicon 100 kDa centrifugal filters (Millipore). The resulting mixture was then filtered using a 0.2 μm sterile filter. The final LNP was stored at −80° C. until further use.
as §3, §4, §5, §6
Lipid nanoparticle formulations of modified sgRNAs targeting human TTR and the cyno matched sgRNA sequences were tested on primary human hepatocytes and primary cyno hepatocytes in a dose response curve. Primary human and cyno hepatocytes were plated as described in Example 1. […]

B1: G000503: TTR Cyno specific sgRNA modified sequence, SEQ ID No. 115; guide sequence of CR005372 (nucleic acid)
guide: mA*mA*mA*rArGrGrCrUrGrCrUrGrArUrGrArGrArCrCrGrUrUrUrUrArGrAmGmCmUmAmGmAmAmAmUmAmGmCrArArGrUrUrArArArArUrArArGrGrCrUrArGrUrCrCrGrUrUrArUrCrAmAmCmUmUmGmAmAmAmAmAmGmUmGmGmCmAmCmCmGmAmGmUmCmGmGmUmGmCmU*mU*mU*mU
Max Editing (TTR [1]): 83.41 | Avg % Deletion (TTR [2]): 6.50% | Avg % Edit (TTR [2]): 58.53% | Avg % Insert (TTR [2]): 52.07%

B2: G000505: TTR Cyno specific sgRNA modified sequence, SEQ ID No. 117; guide sequence of CR005365 (nucleic acid)
guide: mC*mA*mU*rUrGrArCrArGrCrArGrGrArCrUrGrCrCrUrGrUrUrUrUrArGrAmGmCmUmAmGmAmAmAmUmAmGmCrArArGrUrUrArArArArUrArArGrGrCrUrArGrUrCrCrGrUrUrArUrCrAmAmCmUmUmGmAmAmAmAmAmGmUmGmGmCmAmCmCmGmAmGmUmCmGmGmUmGmCmU*mU*mU*mU
Max Editing (TTR [1]): 99.97 | Max Editing (TTR [3]): 13.48 | Avg % Deletion (TTR [2]): 0.10% | Avg % Edit (TTR [2]): 95.53% | Avg % Insert (TTR [2]): 95.50%

B3: G000506: TTR Cyno specific sgRNA modified sequence, SEQ ID No. 118; guide sequence of CR005366 (nucleic acid)
guide: mA*mU*mA*rCrCrArGrUrCrCrArGrCrGrArGrGrCrArGrGrUrUrUrUrArGrAmGmCmUmAmGmAmAmAmUmAmGmCrArArGrUrUrArArArArUrArArGrGrCrUrArGrUrCrCrGrUrUrArUrCrAmAmCmUmUmGmAmAmAmAmAmGmUmGmGmCmAmCmCmGmAmGmUmCmGmGmUmGmCmU*mU*mU*mU
Max Editing (TTR [1]): 99.18 | Max Editing (TTR [3]): 89.49 | 12.5 ng mRNA, 3.9 nM sgRNA % Edit (TTR [4]): 60.13% | Avg % Deletion (TTR [2]): 3.07% | Avg % Edit (TTR [2]): 89.43% | Avg % Insert (TTR [2]): 86.90%

B4: G000504: TTR Cyno specific sgRNA modified sequence, SEQ ID No. 116; guide sequence of CR005364 (nucleic acid)
guide: mA*mA*mA*rGrGrCrUrGrCrUrGrArUrGrArGrArCrCrUrGrUrUrUrUrArGrAmGmCmUmAmGmAmAmAmUmAmGmCrArArGrUrUrArArArArUrArArGrGrCrUrArGrUrCrCrGrUrUrArUrCrAmAmCmUmUmGmAmAmAmAmAmGmUmGmGmCmAmCmCmGmAmGmUmCmGmGmUmGmCmU*mU*mU*mU
Max Editing (TTR [1]): 98.04 | Max Editing (TTR [3]): 7.16 | Avg % Deletion (TTR [2]): 7.53% | Avg % Edit (TTR [2]): 77.17% | Avg % Insert (TTR [2]): 69.73%
